Test results as given in patent US20260070983A1 (Eli Lilly, published 2026).

Molecular target: human PD-1-ECD-His (human)
Assay: SPR (Biacore), 37 °C

human PD-1-ECD-His (human), sequence (chain, as listed by the source): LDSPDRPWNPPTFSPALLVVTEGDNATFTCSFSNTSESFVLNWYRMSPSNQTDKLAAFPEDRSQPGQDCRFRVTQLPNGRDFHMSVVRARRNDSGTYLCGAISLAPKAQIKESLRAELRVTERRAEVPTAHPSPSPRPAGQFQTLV

Kd: 2.29 nM | koff: 0.000701 s⁻¹ | kon: 307000 M⁻¹ s⁻¹
B1: peresolimab (antibody, V domains shown)
VH: QVQLVQSGAEVKKPGASVKVSCKVSGYSLSKYDMSWVRQAPGKGLEWMGIIYTSGYTDYAQKFQGRVTMTEDTSTDTAYMELSSLRSEDTAVYYCATGNPYYTNGFNSWGQGTLVTVSS
VL: DIQMTQSPSSLSASVGDRVTITCQASQSPNNLLAWYQQKPGKAPKLLIYGASDLPSGVPSRFSGSGSGTDFTLTISSLQPEDFATYYCQNNYYVGPVSYAFGGGTKVEIK
